Test results taken from paper PMC5904244, “Oligomeric states in sodium ion-dependent regulation of cyanobacterial histidine kinase-2” (Protoplasma, 2017).
Several values for one entry are separate records, joined by “and”; a condition that tells them apart may be missing. Equal values may be shown once.

B1: truncated DHp domain of Thermosynechococcus elongatus BP-1 Hik2 (domain or fragment, UniProt Q8DMC5 142-270, looked up)
chain: SHSPAQPLDQRQQRFDDLLHQLRNPVAAIRTFVKLLLKRLEPDHKGRPLAEGIAKETERLMALLEDYRQQRNDIPALTGSQPLPLAGKPLDLAETLLPLISAAQARAEMEGKTFVVEIPPQLPPIWLEE
notes: Hik2 (tlr0195), Thermosynechococcus elongatus BP-1, DHp domain, amino acids 142-270; calculated molecular mass 15.1 kDa; The forward primer has catatgATG, so added N-terminal Met residues are likely; A C-terminal His tag from the vector is surmised
B2: full-length Synechocystis sp. PCC 6803 histidine kinase 2 (Hik2) (enzyme, UniProt P73276 1-434, looked up)
chain: MAGSISSMYSPSAGLISLCQSQVRLLQQGLRVDWCGVYLNQEETEQGLVPLVVSHGSTLVESESYGLISLPQGEVSPPMDDFSLPAVPVGVGQLSRRSRLEPPPFDADKRLVLPLVYGEEMVGLLVIHRSQGQWHGEEMMQLEAIAKSLAVACLLDQQQDWYRQAWEEQNQQYQWERQHWADLLHQLRNPLTALKTFSKLLLKRWHGDNKSQQVVEGIVRQGEHLQELLQSFEASQSQGPEAVPLLSSSPVTTIQVLPPADRVETMPLANFSLGEVLPPILLAHQAIAAERNITLTAQIALIDTVVMANRLALREVVNNLLDNGIKYTPNGGLVEVSLALEKVSSSGMDWATLAIADTGYGIPPEDQQKIFERNYRGVQGRGSINGTGLGLAIVADLVAQMGGKITVTSPNGLSRDPDQPGSTFTLWLRSGEQV
notes: Histidine kinase 2 (Hik2), slr1147, Synechocystis sp; PCC 6803, full length; calculated molecular mass 48.5 kDa
B3: full-length Thermosynechococcus elongatus BP-1 Hik2 (enzyme, UniProt Q8DMC5 1-385, looked up)
chain: MLWPASEEFAALCRTQLELVVNSLGASSLAVYLSETLNDSPSWSPVAVYPEAASLLSLAIPPTLPPPTQVPETSLSHYPQQVVSSLANQLILPLMYQNWVLGVLVAQRQHRPWLAAEQAQLQQVAQTLAIACVLDQRQQWLSHSPAQPLDQRQQRFDDLLHQLRNPVAAIRTFVKLLLKRLEPDHKGRPLAEGIAKETERLMALLEDYRQQRNDIPALTGSQPLPLAGKPLDLAETLLPLISAAQARAEMEGKTFVVEIPPQLPPIWLEERVLQEVVGNLLDNAFKYTPKGGTIGLRLMLSSPALELTVWDTGCGIPKEAQPRLFERGYRGVQADSGIEGSGLGLAIAQDLLRPYGLSLRVTSPYAGDRGTAFTLAIPWQMKVEP
notes: Histidine kinase 2 (Hik2), tlr0195, Thermosynechococcus elongatus BP-1, full length; calculated molecular mass 44.2 kDa; The forward primer has catatgATG, so one extra N-terminal Met may be present; A C-terminal His tag from the vector is surmised
B4: truncated core kinase domain of Thermosynechococcus elongatus BP-1 Hik2 containing only the DHp and CA subdomains (domain or fragment, UniProt Q8DMC5 142-385, looked up)
chain: SHSPAQPLDQRQQRFDDLLHQLRNPVAAIRTFVKLLLKRLEPDHKGRPLAEGIAKETERLMALLEDYRQQRNDIPALTGSQPLPLAGKPLDLAETLLPLISAAQARAEMEGKTFVVEIPPQLPPIWLEERVLQEVVGNLLDNAFKYTPKGGTIGLRLMLSSPALELTVWDTGCGIPKEAQPRLFERGYRGVQADSGIEGSGLGLAIAQDLLRPYGLSLRVTSPYAGDRGTAFTLAIPWQMKVEP
notes: Hik2 (tlr0195), Thermosynechococcus elongatus BP-1, kinase domain (DHp and CA), amino acids 142-386; calculated molecular mass 26.2 kDa; The forward primer has catatgATG, so added N-terminal Met residues are likely; A C-terminal His tag from the vector is surmised

How the values were obtained:
[1] = molecular target: the molecule itself; assay: SEC; Superdex 200 10/300GL, 20 mM Tris-HCl pH 7.6, 10 mM NaCl (low salt); apparent molecular masses from a calibration curve
[2] = molecular target: the molecule itself; assay: SEC; Superdex 200 10/300GL, 20 mM Tris-HCl pH 7.6, 500 mM NaCl (high salt); apparent molecular masses from a calibration curve
[3] = molecular target: the molecule itself; assay: cross-linking; DSP (1-11 mM; 2 mM in later experiments), 2-50 uM Hik2, 25 mM HEPES-NaOH pH 7.5, 5 mM KCl, 5 mM MgCl2, 23 °C, 10 min; no NaCl treatment; non-reducing 10% SDS-PAGE, Coomassie
[4] = molecular target: the molecule itself; assay: negative-stain transmission electron microscopy, single-particle analysis; dilution series on carbon-coated grids, 2% uranyl acetate; class averages assigned subjectively to oligomeric families; buffer and salt not stated

| Protein | stoichiometry N [1] | stoichiometry N [2] | stoichiometry N [3] | stoichiometry N [4] |
| --- | --- | --- | --- | --- |
| B1 | 8 | 6 | – | – |
| B2 | – | – | 4 and 6 and 8 | 2 and 3 |
| B3 | 6 | 4 | – | – |
| B4 | 6 | 4 | – | – |
